No end group written: not given here. *: point of attachment. Biotin = O=C1N[C@H]2[C@H](CS[C@H]2CCCCC(=O)*)N1
Molecular target: T1, E. coli replicative helicase DnaB, purified (E. coli, UniProt P0ACB0 1-471)
T1 construct: replicative helicase DnaB, E. coli; Construct and purification are in the Supplemental Experimental Procedures; also called E. coli DnaB
Assay: not stated; apparent KD (equilibrium dissociation constant), Figure S5; the method is not told in the text shown (SPR is the only quantitative binding method that the paper names)
Details: both partners purified

T1 sequence (P0ACB0 whole entry): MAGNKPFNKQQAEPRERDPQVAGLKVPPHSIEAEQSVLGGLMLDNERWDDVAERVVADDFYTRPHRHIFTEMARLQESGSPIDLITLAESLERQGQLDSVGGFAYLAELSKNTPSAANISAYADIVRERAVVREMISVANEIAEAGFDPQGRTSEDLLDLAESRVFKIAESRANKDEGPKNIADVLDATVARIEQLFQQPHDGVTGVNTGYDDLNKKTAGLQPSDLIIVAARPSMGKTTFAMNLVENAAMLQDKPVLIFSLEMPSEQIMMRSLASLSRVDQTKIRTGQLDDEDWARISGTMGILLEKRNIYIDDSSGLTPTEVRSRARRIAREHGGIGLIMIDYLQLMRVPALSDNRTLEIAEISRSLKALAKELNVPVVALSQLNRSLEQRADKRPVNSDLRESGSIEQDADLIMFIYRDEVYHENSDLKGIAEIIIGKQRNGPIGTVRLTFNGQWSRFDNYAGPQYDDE

B1: C33^Rep peptide (synthetic peptide corresponding to the C-terminal 33 residues of Rep) (peptide, UniProt P09980 641-673, looked up)
peptide: Biotin-EQERKVVSAEERMQKGQSHLANLKAMMAAKRGK
notes: C-terminal 33 residues of Rep helicase, E. coli; also called the Rep C terminus; source: synthetic peptide; not shown: biotin tag, N-terminal, kept
Kd: < 100 nM

Source: paper PMC2807033, “Rep Provides a Second Motor at the Replisome to Promote Duplication of Protein-Bound DNA” (Molecular Cell, 2009)
